Patent US20210024601A1 (published 2021)

B1: E68Q (protein)
chain: APTSSSTKKTQLQLEHLLLDLQMILNGINNYKNPKLTRMLTFKFYMPKKATELKHLQCLEEELKPLEQALNLAPSKNFHLRPRDLISNINVIVLELKGSETTFMCEYADETATIVEFLNRWITFSQSIISTLT
B2: CD25 (receptor)
chain: ELCDDDPPEIPHATFKAMAYKEGTMLNCECKRGFRRIKSGSLYMLCTGNSSHSSWDNQCQCTSSATRNTTKQVTPQPEEQKERKTTEMQSPMQPVDQASLPGHCREPPPWENEATERIYHFVVGQMVYYQCVQGYRALHRGPAESVCKMTHGKTRWTQPQLICTGEMETSQFPGEEKPQASPEGRPESETSCLVTTTDFQIQTEMAATMETSIFTTEYQHHHHHH

Experiments:
[1] = target: T1, recombinant human CD25 extracellular domain tagged with 6xHis (human, UniProt P01589 22-240)
T1 chain: B2 chain

Row | Binder | Kd [1] | Kd (V69A) | Kd (L72I) | Kd (M104D) | Kd (I114W) | Kd (N71Y)
1 | B1 | 0.022 nM | – | – | – | – | –
2 | B2 | – | 0.023 nM | 0.024 nM | 0.028 nM | 0.038 nM | 0.018 nM
